Source: publication PMC6504816

Biological target: T1, YlxR (Bacillus subtilis) (UniProt P32728)
T1 sequence: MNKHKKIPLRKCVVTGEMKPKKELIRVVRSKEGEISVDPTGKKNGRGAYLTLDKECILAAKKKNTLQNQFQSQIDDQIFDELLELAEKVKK
Assay: EMSA
Details: 10 mM Tris-HCl pH 8.0, 100 mM KCl, 10 mM MgCl2, 1 mM DTT, 1 mM EDTA, 1 ug poly(dI-dC), 20 fmol probe in 20 ul, 15 min at 25 C; 6% native PAGE

| Sequence | binding |
| --- | --- |
| CTGGATGATATGGCAGAGTGGGTGTCAAAAATTAAATAAAAGAACTATTTTTCTCTTTATACATTCACAGGCCGCCGAGATGTTCTCGACAGCCTTTTATTTTTGACTGCTGCGTGCAGACCCGCATCAAAAGAAATAATTTCAAAATCATTTGCTTCAG (double strand) [PtrmK [-295/-135] Wt] | binds |
| GGATATTCCATACCAATTCGATAAACTAGGAAGAGCACAAATAGGCATAAGCAGGGTTGAAAGGAGGTTTTGGTTC (double strand) [PthiL [-76/-1] M1] | binds more weakly |
| GGATATTCCAGCAAAATTCGATAAACTAGGAAGAGCACAAATAGGCATAAGCAGGGTTGAAAGGAGGTTTTGGTTC (double strand) [PthiL [-76/-1] Wt] | binds |
| CTGGATGATATGGCAGAGTGGGTGTACCAAATTAAATAAAAGAACTATTTTTCTCTTTATACATTCACAGGCCGCCGAGATGTTCTCGACAGCCTTTTATTTTTGACTGCTGCGTGCAGACCCGCATCAAAAGAAATAATTTCAAAATCATTTGCTTCAG (double strand) [PtrmK [-295/-135] M1] | binds |
